This is an account of results in US20200297818A1 (ZEALAND PHARMA A S, published 2020).

Positions count from the first letter of the chain named.

T1: human GLP-2 receptor (hGLP2-R) (human, UniProt O95838 1-553)
T1 sequence (looked up): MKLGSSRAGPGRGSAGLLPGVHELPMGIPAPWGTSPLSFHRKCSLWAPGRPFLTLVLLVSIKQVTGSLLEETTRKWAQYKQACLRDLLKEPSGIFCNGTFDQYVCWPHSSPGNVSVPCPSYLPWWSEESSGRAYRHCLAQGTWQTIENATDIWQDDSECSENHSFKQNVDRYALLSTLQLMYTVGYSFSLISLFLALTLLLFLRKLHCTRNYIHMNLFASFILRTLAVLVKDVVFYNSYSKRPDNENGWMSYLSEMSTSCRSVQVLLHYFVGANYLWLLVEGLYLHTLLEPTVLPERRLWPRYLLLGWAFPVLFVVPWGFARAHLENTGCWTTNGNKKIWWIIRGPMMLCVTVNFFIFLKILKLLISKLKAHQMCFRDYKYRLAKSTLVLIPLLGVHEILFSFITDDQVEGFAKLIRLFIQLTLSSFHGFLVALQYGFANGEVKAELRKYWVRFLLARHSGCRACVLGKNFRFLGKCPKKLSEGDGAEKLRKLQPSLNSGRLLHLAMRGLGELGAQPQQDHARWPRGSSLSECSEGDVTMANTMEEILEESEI

B1: Compound 24 (peptide)
peptide: HXEGSFTSELATILDXQAARDFIAWLIEHKITD
HELM: PEPTIDE1{H.[Aib].E.G.S.F.T.S.E.L.A.T.I.L.D.K.Q.A.A.R.D.F.I.A.W.L.I.E.H.K.I.T.D}|PEPTIDE2{[O=C(O)CCCCCCCCCCCCCCCCC(=O)[*:2]].[gGlu]}$PEPTIDE1,PEPTIDE2,16:R3-2:R2$$$V2.0
SMILES: CC[C@H](C)[C@H](NC(=O)[C@H](Cc1ccccc1)NC(=O)[C@H](CC(=O)O)NC(=O)[C@H](CCCNC(=N)N)NC(=O)[C@H](C)NC(=O)[C@H](C)NC(=O)[C@H](CCC(N)=O)NC(=O)[C@H](CCCCNC(=O)CC[C@H](NC(=O)CCCCCCCCCCCCCCCCC(=O)O)C(=O)O)NC(=O)[C@H](CC(=O)O)NC(=O)[C@H](CC(C)C)NC(=O)[C@@H](NC(=O)[C@@H](NC(=O)[C@H](C)NC(=O)[C@H](CC(C)C)NC(=O)[C@H](CCC(=O)O)NC(=O)[C@H](CO)NC(=O)[C@@H](NC(=O)[C@H](Cc1ccccc1)NC(=O)[C@H](CO)NC(=O)CNC(=O)[C@H](CCC(=O)O)NC(=O)C(C)(C)NC(=O)[C@@H](N)Cc1c[nH]cn1)[C@@H](C)O)[C@@H](C)O)[C@@H](C)CC)C(=O)N[C@@H](C)C(=O)N[C@@H](Cc1c[nH]c2ccccc12)C(=O)N[C@@H](CC(C)C)C(=O)N[C@H](C(=O)N[C@@H](CCC(=O)O)C(=O)N[C@@H](Cc1c[nH]cn1)C(=O)N[C@@H](CCCCN)C(=O)N[C@H](C(=O)N[C@H](C(=O)N[C@@H](CC(=O)O)C(=O)O)[C@@H](C)O)[C@@H](C)CC)[C@@H](C)CC
B2: Compound 25 (peptide)
peptide: B1 peptide with S5T
HELM: PEPTIDE1{H.[Aib].E.G.T.F.T.S.E.L.A.T.I.L.D.K.Q.A.A.R.D.F.I.A.W.L.I.E.H.K.I.T.D}|PEPTIDE2{[O=C(O)CCCCCCCCCCCCCCCCC(=O)[*:2]].[gGlu]}$PEPTIDE1,PEPTIDE2,16:R3-2:R2$$$V2.0
SMILES: CC[C@H](C)[C@H](NC(=O)[C@H](Cc1ccccc1)NC(=O)[C@H](CC(=O)O)NC(=O)[C@H](CCCNC(=N)N)NC(=O)[C@H](C)NC(=O)[C@H](C)NC(=O)[C@H](CCC(N)=O)NC(=O)[C@H](CCCCNC(=O)CC[C@H](NC(=O)CCCCCCCCCCCCCCCCC(=O)O)C(=O)O)NC(=O)[C@H](CC(=O)O)NC(=O)[C@H](CC(C)C)NC(=O)[C@@H](NC(=O)[C@@H](NC(=O)[C@H](C)NC(=O)[C@H](CC(C)C)NC(=O)[C@H](CCC(=O)O)NC(=O)[C@H](CO)NC(=O)[C@@H](NC(=O)[C@H](Cc1ccccc1)NC(=O)[C@@H](NC(=O)CNC(=O)[C@H](CCC(=O)O)NC(=O)C(C)(C)NC(=O)[C@@H](N)Cc1c[nH]cn1)[C@@H](C)O)[C@@H](C)O)[C@@H](C)O)[C@@H](C)CC)C(=O)N[C@@H](C)C(=O)N[C@@H](Cc1c[nH]c2ccccc12)C(=O)N[C@@H](CC(C)C)C(=O)N[C@H](C(=O)N[C@@H](CCC(=O)O)C(=O)N[C@@H](Cc1c[nH]cn1)C(=O)N[C@@H](CCCCN)C(=O)N[C@H](C(=O)N[C@H](C(=O)N[C@@H](CC(=O)O)C(=O)O)[C@@H](C)O)[C@@H](C)CC)[C@@H](C)CC
B3: Compound 27 (peptide)
peptide: B1 peptide with E28Y
HELM: PEPTIDE1{H.[Aib].E.G.S.F.T.S.E.L.A.T.I.L.D.K.Q.A.A.R.D.F.I.A.W.L.I.Y.H.K.I.T.D}|PEPTIDE2{[O=C(O)CCCCCCCCCCCCCCCCC(=O)[*:2]].[gGlu]}$PEPTIDE1,PEPTIDE2,16:R3-2:R2$$$V2.0
SMILES: CC[C@H](C)[C@H](NC(=O)[C@H](Cc1ccccc1)NC(=O)[C@H](CC(=O)O)NC(=O)[C@H](CCCNC(=N)N)NC(=O)[C@H](C)NC(=O)[C@H](C)NC(=O)[C@H](CCC(N)=O)NC(=O)[C@H](CCCCNC(=O)CC[C@H](NC(=O)CCCCCCCCCCCCCCCCC(=O)O)C(=O)O)NC(=O)[C@H](CC(=O)O)NC(=O)[C@H](CC(C)C)NC(=O)[C@@H](NC(=O)[C@@H](NC(=O)[C@H](C)NC(=O)[C@H](CC(C)C)NC(=O)[C@H](CCC(=O)O)NC(=O)[C@H](CO)NC(=O)[C@@H](NC(=O)[C@H](Cc1ccccc1)NC(=O)[C@H](CO)NC(=O)CNC(=O)[C@H](CCC(=O)O)NC(=O)C(C)(C)NC(=O)[C@@H](N)Cc1c[nH]cn1)[C@@H](C)O)[C@@H](C)O)[C@@H](C)CC)C(=O)N[C@@H](C)C(=O)N[C@@H](Cc1c[nH]c2ccccc12)C(=O)N[C@@H](CC(C)C)C(=O)N[C@H](C(=O)N[C@@H](Cc1ccc(O)cc1)C(=O)N[C@@H](Cc1c[nH]cn1)C(=O)N[C@@H](CCCCN)C(=O)N[C@H](C(=O)N[C@H](C(=O)N[C@@H](CC(=O)O)C(=O)O)[C@@H](C)O)[C@@H](C)CC)[C@@H](C)CC
B4: Compound 26 (peptide)
peptide: B1 peptide with E28H
HELM: PEPTIDE1{H.[Aib].E.G.S.F.T.S.E.L.A.T.I.L.D.K.Q.A.A.R.D.F.I.A.W.L.I.H.H.K.I.T.D}|PEPTIDE2{[O=C(O)CCCCCCCCCCCCCCCCC(=O)[*:2]].[gGlu]}$PEPTIDE1,PEPTIDE2,16:R3-2:R2$$$V2.0
SMILES: CC[C@H](C)[C@H](NC(=O)[C@H](Cc1ccccc1)NC(=O)[C@H](CC(=O)O)NC(=O)[C@H](CCCNC(=N)N)NC(=O)[C@H](C)NC(=O)[C@H](C)NC(=O)[C@H](CCC(N)=O)NC(=O)[C@H](CCCCNC(=O)CC[C@H](NC(=O)CCCCCCCCCCCCCCCCC(=O)O)C(=O)O)NC(=O)[C@H](CC(=O)O)NC(=O)[C@H](CC(C)C)NC(=O)[C@@H](NC(=O)[C@@H](NC(=O)[C@H](C)NC(=O)[C@H](CC(C)C)NC(=O)[C@H](CCC(=O)O)NC(=O)[C@H](CO)NC(=O)[C@@H](NC(=O)[C@H](Cc1ccccc1)NC(=O)[C@H](CO)NC(=O)CNC(=O)[C@H](CCC(=O)O)NC(=O)C(C)(C)NC(=O)[C@@H](N)Cc1c[nH]cn1)[C@@H](C)O)[C@@H](C)O)[C@@H](C)CC)C(=O)N[C@@H](C)C(=O)N[C@@H](Cc1c[nH]c2ccccc12)C(=O)N[C@@H](CC(C)C)C(=O)N[C@H](C(=O)N[C@@H](Cc1c[nH]cn1)C(=O)N[C@@H](Cc1c[nH]cn1)C(=O)N[C@@H](CCCCN)C(=O)N[C@H](C(=O)N[C@H](C(=O)N[C@@H](CC(=O)O)C(=O)O)[C@@H](C)O)[C@@H](C)CC)[C@@H](C)CC

In the first experiment the target is T1, human GLP-2 receptor (hGLP2-R). The experiment in a line: cell-based or functional assay.
As for B1, the “EC50 GLP-2 (nM); cAMP response” value is 0.17 nM.

B2: the “EC50 GLP-2 (nM); cAMP response” value was 0.33 nM.

With B3, the “EC50 GLP-2 (nM); cAMP response” value amounted to 1.1 nM.

B4: the “EC50 GLP-2 (nM); cAMP response” value was 0.59 nM.

Another experiment addresses human glucagon-like peptide 1 receptor (GLP-1 R) (human, UniProt P43220 24-463). The experiment in a line: cell-based or functional assay.
Take B1: the “EC50 GLP-1 (nM); cAMP response” value is 0.21 nM.

For the molecule B2, the “EC50 GLP-1 (nM); cAMP response” value was 0.094 nM.

B3: the “EC50 GLP-1 (nM); cAMP response” value is 0.45 nM.

Take B4: the “EC50 GLP-1 (nM); cAMP response” value came out at 0.29 nM.
